System: peptide library, one residue held at a place counted from the S/T acceptor
Assay: relative phosphorylation of the sub-library (ratio to the mean residue at this position); human; higher = residue favoured
How it was run: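 Spots on streptavidin membranes were phosphorimaged and quantified by densitometry to measure phosphorylation of biotinylated degenerate peptide sub-libraries by purified recombinant kinases, human or orthologue constructs. The reactions ran in 384-well plates for 90 min under kinase-specific conditions, with peptides at 50 μM and 50 μM ATP spiked with γ-32P-ATP. Relative sub-library phosphorylation is the ratio to the mean residue at that position.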

Sequence of CSNK1A1L, construct: Full length (Q8N752 whole entry, looked up): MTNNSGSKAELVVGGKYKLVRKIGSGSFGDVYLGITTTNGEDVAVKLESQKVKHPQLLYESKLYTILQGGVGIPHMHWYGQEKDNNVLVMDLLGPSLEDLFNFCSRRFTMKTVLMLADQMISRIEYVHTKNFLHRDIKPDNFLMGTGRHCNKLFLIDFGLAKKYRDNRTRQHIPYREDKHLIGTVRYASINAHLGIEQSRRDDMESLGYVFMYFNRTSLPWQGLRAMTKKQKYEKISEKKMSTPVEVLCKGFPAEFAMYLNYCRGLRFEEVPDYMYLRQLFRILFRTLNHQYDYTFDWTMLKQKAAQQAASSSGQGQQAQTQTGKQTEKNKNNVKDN
Sequence of MAP4K3, construct: aa1-380 (Q8IVH8 1-380, looked up): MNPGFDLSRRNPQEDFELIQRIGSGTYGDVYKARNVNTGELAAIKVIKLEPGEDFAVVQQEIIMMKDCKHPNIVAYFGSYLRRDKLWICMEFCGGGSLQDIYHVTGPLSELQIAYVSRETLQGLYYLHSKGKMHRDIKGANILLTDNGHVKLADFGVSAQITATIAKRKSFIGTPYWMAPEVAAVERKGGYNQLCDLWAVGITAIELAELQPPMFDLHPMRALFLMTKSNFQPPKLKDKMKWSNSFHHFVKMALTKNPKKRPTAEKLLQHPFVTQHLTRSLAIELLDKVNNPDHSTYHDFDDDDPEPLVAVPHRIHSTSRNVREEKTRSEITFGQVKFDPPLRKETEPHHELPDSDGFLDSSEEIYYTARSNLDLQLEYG

CSNK1A1L, construct: Full length (from UniProt Q8N752)
relative phosphorylation
Settings	at +1	at +2	at +3	at +4	at -1	at -2	at -3	at -4	at -5
A fixed	0.971	1.06	1.06	1.04	1.09	1.69	0.946	0.941	0.921
D fixed	0.691	0.714	0.868	0.854	0.749	0.716	1.06	0.888	0.771
E fixed	0.871	0.578	0.9	0.871	0.977	0.991	2.26	1.1	0.78
F fixed	0.886	1.12	1.17	1.05	0.872	0.81	0.784	0.965	1.27
G fixed	0.849	0.885	1.07	0.992	1.21	0.819	0.778	0.948	0.897
H fixed	0.744	0.98	0.899	0.858	0.896	0.748	0.734	0.933	0.985
I fixed	1.87	1.66	1.19	1.03	0.879	0.847	0.965	1.13	1.1
K fixed	0.883	1.02	0.845	1.09	1.2	1.35	1.13	1.24	1.27
L fixed	1.19	0.964	1.07	1.11	1.01	0.903	0.811	1.08	1.09
M fixed	1.03	1.02	1.17	1.08	1.13	0.839	0.751	0.96	1.09
N fixed	0.745	0.702	0.795	0.777	0.997	0.798	0.704	0.96	0.874
P fixed	0.719	0.705	0.904	1.1	1.02	1.19	0.741	0.873	0.874
Q fixed	0.801	0.731	0.808	0.913	0.878	0.889	0.685	0.865	0.807
R fixed	1.25	1.03	0.801	0.897	1.54	2.1	2.08	1.15	1.18
V fixed	1.88	1.38	1.14	1.02	0.854	0.889	0.813	0.956	0.925
W fixed	0.769	1.06	1.16	1.24	0.754	0.681	0.656	0.946	0.928
Y fixed	0.854	1.4	1.15	1.07	0.94	0.737	1.09	1.08	1.25
pThr fixed	1.69	0.803	1.25	1.64	2.06	3.58	53.8	5.13	1.56
pTyr fixed	1.26	2.63	3.97	2.06	1.5	1.78	2.99	4.32	1.93

MAP4K3, construct: aa1-380 (from UniProt Q8IVH8)
relative phosphorylation
Settings	at +1	at +2	at +3	at +4	at -1	at -2	at -3	at -4	at -5
A fixed	0.464	0.792	0.671	0.932	0.978	1.09	0.815	0.964	1.07
D fixed	0.179	0.667	0.375	0.655	0.611	0.522	0.553	0.851	0.835
E fixed	0.151	0.643	0.296	0.592	0.437	0.406	0.569	0.894	0.687
F fixed	1.09	0.464	0.536	0.71	0.692	1.16	0.778	0.991	0.922
G fixed	0.613	0.996	0.846	1.12	1.93	1.43	1.51	1.39	1.32
H fixed	0.606	1.12	1.04	1.07	1.21	1.34	1.13	1.04	1.07
I fixed	1.8	0.357	0.432	0.733	0.279	0.676	0.556	0.696	0.772
K fixed	0.642	2.68	2.32	1.93	1.66	0.987	2.27	1.34	1.49
L fixed	3.72	0.602	0.549	0.722	0.859	0.655	0.602	0.748	0.637
M fixed	2.73	0.664	0.51	0.9	1.05	0.687	0.651	0.869	0.862
N fixed	0.632	1.11	0.868	1.05	1.54	1.16	1.07	0.867	1.01
P fixed	0.418	1.16	0.942	1.11	0.741	0.854	1.08	1.13	1.11
Q fixed	0.655	0.952	0.952	1.17	0.998	0.785	0.843	0.928	0.864
R fixed	0.67	3.22	4.5	1.67	1.92	1.5	2.13	1.48	1.45
V fixed	0.672	0.428	0.497	0.743	0.362	0.815	0.529	0.695	0.833
W fixed	1.14	0.528	0.893	0.999	0.668	1.3	0.935	1.16	1.07
Y fixed	0.821	0.615	0.772	0.885	1.06	1.63	0.978	0.968	1.01
pThr fixed	0.928	0.749	0.717	0.614	0.437	0.985	1.11	1.13	1.32
pTyr fixed	0.355	0.389	0.637	0.486	0.516	0.763	1.04	0.852	1.16

From the supplement of paper PMC9876800
